Paper PMC6321638

Molecular target: L52A or F85A
Test: pull-down; GST-pulldown: purified His-SOUL (5 µM) and GST-ALG-2 (5 µM) with Glutathione Sepharose 4B in buffer B (100 mM Tris-HCl pH 7.5, 100 mM NaCl, 10% glycerol) with 20 µM CaCl2 (or various amounts of Ca2+), 30 min at 4 °C; SDS-PAGE, Coomassie

binding relative to ALG-2^WT (percent): 80 to 90%
B1: His-SOUL^WT (wild-type SOUL fused to His-tag) (natural protein)
chain: MAEEPEPDLGVAEGSEDQALEMPSWKAPEDIDPQPGSYEIRHYGPAKWVSTCVESLDWDSAIQTGFTKLNGYIQGKNEKEMKIKLTAPVTSYVEPGSSPFSESTITISLYIPSEQQPDPPRPSESDVFIEDRAEMTVFVRSFDGFSSGQKNQEQLLTLANILREEGKVFNEKVFYTAGYSSPFQLLDRNNEVWLIQKNEPSVENK
